In patent US6555340:

Columns and labels:
[1] = target: RAGE on cultured bovine aortic endothelial cells (BAEC RAGE) (bovine) (UniProt Q28173); test: binding to endothelial cells in culture wells
[2] = target: RAGE on macrophages / macrophage-like cultured BV2 cells (MP RAGE) (UniProt Q62151); test: binding to macrophages in culture wells
[3] = target: cellular RAGE on human cells (HUVEC, Molt-4 cells, PBMC, Jurkat cells) (human) (UniProt Q15109); test: cell-based or functional assay
[4] = target: purified soluble human RAGE (sRAGE), prepared from a baculovirus expression system (human) (UniProt Q15109); test: binding to immobilised RAGE in wells
Sequence of purified soluble human RAGE (sRAGE), prepared from a baculovirus expression system (human) (Q15109 23-342): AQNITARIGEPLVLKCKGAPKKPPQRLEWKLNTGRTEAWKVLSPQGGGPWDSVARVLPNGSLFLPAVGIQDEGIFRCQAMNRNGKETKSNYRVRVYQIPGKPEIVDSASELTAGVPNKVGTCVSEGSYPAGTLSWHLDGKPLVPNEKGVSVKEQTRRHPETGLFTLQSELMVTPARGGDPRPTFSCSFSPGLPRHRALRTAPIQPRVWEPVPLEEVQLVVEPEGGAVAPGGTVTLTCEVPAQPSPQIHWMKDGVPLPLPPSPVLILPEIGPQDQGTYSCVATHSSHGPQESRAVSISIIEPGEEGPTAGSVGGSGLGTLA

[5] = target: cellular RAGE on human cells (HUVEC, Molt-4 cells, PBMC, Jurkat cells) (human, UniProt Q15109 23-404); test: cell-based or functional assay
Sequence of cellular RAGE on human cells (HUVEC, Molt-4 cells, PBMC, Jurkat cells) (Q15109 23-404): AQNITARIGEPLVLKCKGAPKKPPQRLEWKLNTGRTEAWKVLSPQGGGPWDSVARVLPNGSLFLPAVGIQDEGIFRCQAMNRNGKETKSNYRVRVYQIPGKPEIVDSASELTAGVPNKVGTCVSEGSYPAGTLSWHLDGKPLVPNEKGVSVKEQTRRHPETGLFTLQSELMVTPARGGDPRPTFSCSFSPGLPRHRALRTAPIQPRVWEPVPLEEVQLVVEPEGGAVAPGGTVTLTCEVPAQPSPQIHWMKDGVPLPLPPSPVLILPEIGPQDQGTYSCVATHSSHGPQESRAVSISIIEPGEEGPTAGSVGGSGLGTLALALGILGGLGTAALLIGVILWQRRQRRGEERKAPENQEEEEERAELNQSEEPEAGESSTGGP

[6] = target: T1, purified soluble human RAGE (sRAGE), prepared from a baculovirus expression system (human, UniProt Q15109 23-342); test: radioligand binding, 125-I EN-RAGE ± 50-fold unlabelled EN-RAGE on immobilised human sRAGE
T1 construct: extracellular domain; Adsorbed to plastic wells at 5 µg/well or to Affi-gel resin; also called soluble RAGE; human soluble RAGE
T1 sequence (Q15109 23-342): as the sequence (Q15109 23-342) above
Protocol: Radioligand binding assays were performed employing the indicated concentration of ^125-I EN-RAGE in the presence or absence of excess unlabelled EN-RAGE (50-fold). […] Where indicated, radiolabelled EN-RAGE (100 nM) was incubated with the indicated amount of excess sRAGE two hours prior to binding assay, or wells were preincubated for two hours with the indicated concentration of rabbit nonimmune IgG, or polyclonal monospecific rabbit anti-EN-RAGE IgG or anti-RAGE IgG prior to binding assay and results reported as % maximal specific binding±SD of the mean. These experiments were performed at least five times with analogous results.
Purified EN-RAGE was radiolabelled using ^125-I and Iodobeads (Pierce) to a specific activity of approximately 5,000 cpm/ng. Radioligand binding assays were performed in 96-well dishes to which had been adsorbed either purified human RAGE (5 µg/well) or bovine aortic endothelial cells. In the former case, after adsorption of human soluble RAGE to the plastic dish in carbonate/bicarbonate buffer (pH 9.3) overnight, wells were then washed with PBS containing Tween 20 (0.05%). Unoccupied binding sites on the plastic wells were blocked by incubation with PBS containing calcium/magnesium and bovine serum albumin (1%) for two hours at 37° C. […] Solution was then aspirated from the wells and counted in a gamma counter (LKB, Gaithersburg, Md.). […]

[7] = target: T2, RAGE on cultured bovine aortic endothelial cells (BAEC RAGE) (bovine, UniProt Q28173 23-416); test: radioligand binding on cultured bovine aortic endothelial cells
T2 construct: whole, on cells; also called BAECs; endothelial (EC) RAGE
T2 sequence (looked up): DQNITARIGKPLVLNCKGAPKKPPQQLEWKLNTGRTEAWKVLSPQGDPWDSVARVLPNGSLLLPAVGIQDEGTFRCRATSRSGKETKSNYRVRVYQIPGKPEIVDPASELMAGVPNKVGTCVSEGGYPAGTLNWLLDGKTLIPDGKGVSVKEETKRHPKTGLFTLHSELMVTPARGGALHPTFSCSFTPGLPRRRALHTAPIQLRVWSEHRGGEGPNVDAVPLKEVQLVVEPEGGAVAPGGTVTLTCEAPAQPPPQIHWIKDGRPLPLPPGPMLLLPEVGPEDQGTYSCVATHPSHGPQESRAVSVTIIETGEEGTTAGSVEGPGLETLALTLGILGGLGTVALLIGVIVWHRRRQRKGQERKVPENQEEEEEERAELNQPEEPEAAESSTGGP
Protocol: These experiments were performed at least five times with analogous results.
Purified EN-RAGE was radiolabelled using ^125-I and Iodobeads (Pierce) to a specific activity of approximately 5,000 cpm/ng. Radioligand binding assays were performed in 96-well dishes to which had been adsorbed either purified human RAGE (5 µg/well) or bovine aortic endothelial cells. In the former case, after adsorption of human soluble RAGE to the plastic dish in carbonate/bicarbonate buffer (pH 9.3) overnight, wells were then washed with PBS containing Tween 20 (0.05%). Unoccupied binding sites on the plastic wells were blocked by incubation with PBS containing calcium/magnesium and bovine serum albumin (1%) for two hours at 37° C. […] Solution was then aspirated from the wells and counted in a gamma counter (LKB, Gaithersburg, Md.). […] Equilibrium binding data were analyzed according to the equation of Klotz and Hunston (Klotz and Hunston, 1984): B=nKA/1+KA, where B=specifically bound ligand (total binding, wells incubated with tracer alone, minus nonspecific binding, wells incubated with tracer in the presence of excess unlabelled material), n=sites/cell, K=the […] constant, and A=free ligand concentration) using nonlinear least-squares analysis (Prism; San Diego, Calif.). […]

[8] = target: T1, purified soluble human RAGE (sRAGE), …; test: elution from RAGE-Affi-gel resin; radioligand binding assay
Description: Isolation and purification of EN-RAGE. Bovine lung acetone powder (SIGMA@) was subjected to solubilization in buffer containing tris (0.02M, pH 7.4); NaCl (0.15M); octyl-β-glucoside (1%); and protease inhibitors (PMSF and aprotinin). After serial chromatography onto SP sepharose (Pharmacia LKB®), and affi-gel 10 resin (BIO-RAD®) to which had been adsorbed purified soluble human RAGE (prepared from a baculovirus expression system), RAGE-binding proteins were identified based on a screening assay employing immobilized column fraction (Nunc Maxisorp dishes) (NUNC®) and ^125-I-labelled sRAGE as above. After elution with heparin-containing buffer (1 mg/ml), positive fractions were identified. RAGE-binding proteins were subjected to sequence analysis.

Sequence of cellular RAGE on human cells (HUVEC, Molt-4 cells, PBMC, Jurkat cells) (human) (Q15109 23-404): as the sequence (Q15109 23-404) above
Sequence of RAGE on macrophages / macrophage-like cultured BV2 cells (MP RAGE) (Q62151 23-402 limits assumed): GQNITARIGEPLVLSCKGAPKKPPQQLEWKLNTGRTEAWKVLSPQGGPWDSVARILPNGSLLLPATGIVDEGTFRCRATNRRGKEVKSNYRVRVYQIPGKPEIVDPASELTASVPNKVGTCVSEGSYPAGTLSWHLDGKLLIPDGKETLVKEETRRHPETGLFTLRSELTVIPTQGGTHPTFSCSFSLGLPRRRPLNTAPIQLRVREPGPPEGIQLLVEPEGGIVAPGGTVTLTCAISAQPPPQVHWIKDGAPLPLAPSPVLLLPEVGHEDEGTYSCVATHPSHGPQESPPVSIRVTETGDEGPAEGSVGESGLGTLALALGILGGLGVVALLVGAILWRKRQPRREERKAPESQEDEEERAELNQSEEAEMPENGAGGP

## ≈12 kDa RAGE-binding polypeptide isolated and purified from bovine lung extract, called EN-RAGE (from UniProt P79105 2-51) (ligand)
[1]
  Kd: 75 nM
[2]
  Kd: 75 nM
[3]
  adhesion of Molt-4 cells to cultured ECs: 7 fold
  expression of cell-surface VCAM-1 on cultured ECs: 4.3 fold
[4]
  Kd: 75 nM

B1: purified S100B from human brain (Calbiochem-Novabiochem) (ligand, UniProt P04271 2-92, looked up)
chain: SELEKAMVALIDVFHQYSGREGDKHKLKKSELKELINNELSHFLEEIKEQEVVDKVMETLDNDGDGECDFQEFMAFVAMVTTACHEFFEHE
[5]
  nuclear translocation of NF-kB in HUVEC (EMSA): ~13.9 fold

B2: recombinant bovine EN-RAGE (Extracellular Novel RAGE binding protein), expressed in Sf9 cells from a baculovirus system (ligand)
chain: TKLEDHLEGIINIFHQYSVRVGHFDTLNKRELKQLITKELPKTLQNTKDQPTIDKIFQDLDADKDGAVSFEEFVVLVSRVLKTAHIDIHK
modifications: radiolabelled with 125-I (Iodobeads) in the radioligand binding assays; unlabelled in the cell activation assays
notes: also called 125-I EN-RAGE; radiolabelled EN-RAGE
[5]
  nuclear NF-kB in HUVEC (EMSA, densitometry): 5 fold
[6]
  Kd: ~91 nM
[7]
  Kd: ~90.3 nM

B3: ≈23 kDa polypeptide from bovine lung extract, identified as amphoterin (ligand, UniProt P10103 2-215, looked up)
chain: GKGDPKKPRGKMSSYAFFVQTCREEHKKKHPDASVNFSEFSKKCSERWKTMSAKEKGKFEDMAKADKARYEREMKTYIPPKGETKKKFKDPNAPKRPPSAFFLFCSEYRPKIKGEHPGLSIGDVAKKLGEMWNNTAADDKQPYEKKAAKLKEKYEKDIAAYRAKGKPDAAKKGVVKAEKSKKKKEEEEDEEDEEDEEEEEDEEDEEEEEDDDDE
notes: The identification is cited to Hori et al., 1995
[8]
  binding result: binds
